Where two headings read alike, the source gives them in different places.
Columns and labels:
[1] = target: T1, dp100 (Drosophila melanogaster, UniProt P22817); assay: Competitive affinity labelling of immunoprecipitated dp100 with 125I-insulin as label; assay type: binding; conditions: for Kd: competition with 125I-insulin
T1 construct: detergent-solubilized membranes from Drosophila-cultured cell lines are immunoprecipitated with anti-EGF receptor antiserum; endogenous in cells; host or cells: Drosophila Schneider L2 and Kc cells (solubilized membrane or cytoplasmic protein, immunoprecipitated)
T1 sequence (P22817 1-990): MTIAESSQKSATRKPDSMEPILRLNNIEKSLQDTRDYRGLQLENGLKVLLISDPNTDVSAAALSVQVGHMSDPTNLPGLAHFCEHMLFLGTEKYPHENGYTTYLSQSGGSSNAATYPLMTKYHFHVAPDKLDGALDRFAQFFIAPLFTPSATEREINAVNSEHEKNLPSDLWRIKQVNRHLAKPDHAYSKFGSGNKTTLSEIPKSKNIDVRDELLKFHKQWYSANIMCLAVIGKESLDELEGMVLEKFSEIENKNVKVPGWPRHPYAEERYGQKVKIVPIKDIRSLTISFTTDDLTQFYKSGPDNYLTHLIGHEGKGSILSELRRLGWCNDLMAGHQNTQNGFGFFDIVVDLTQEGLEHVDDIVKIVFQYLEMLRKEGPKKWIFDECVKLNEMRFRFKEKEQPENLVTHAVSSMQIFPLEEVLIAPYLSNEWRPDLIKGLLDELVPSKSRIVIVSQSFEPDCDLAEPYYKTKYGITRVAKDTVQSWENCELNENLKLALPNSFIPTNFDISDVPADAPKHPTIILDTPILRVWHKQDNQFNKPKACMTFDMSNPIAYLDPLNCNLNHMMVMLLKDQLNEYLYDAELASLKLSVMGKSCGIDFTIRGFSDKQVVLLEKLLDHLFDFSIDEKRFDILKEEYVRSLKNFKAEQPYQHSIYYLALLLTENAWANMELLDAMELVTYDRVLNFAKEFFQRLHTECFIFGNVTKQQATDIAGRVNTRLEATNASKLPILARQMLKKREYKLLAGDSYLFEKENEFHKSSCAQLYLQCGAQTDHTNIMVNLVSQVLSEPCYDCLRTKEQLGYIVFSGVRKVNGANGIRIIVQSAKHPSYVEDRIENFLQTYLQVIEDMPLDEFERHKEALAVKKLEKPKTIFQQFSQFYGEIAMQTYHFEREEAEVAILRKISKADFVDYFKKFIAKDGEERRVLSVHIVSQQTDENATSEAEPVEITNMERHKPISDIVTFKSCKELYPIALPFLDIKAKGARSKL
Experimental: Affinity Labeling of Immunoprecipitates: The dp100 protein is found in the membranes and cytoplasm of the Drosophila cells. Membrane protein is solubilized in 1 to 2% Triton X-100, 10% glycerol, 50 mM Hepes, pH 7.0, for 60 min at 4° C. Typically, 500 microgram of Drosophila membrane protein or 100 microgram of Swiss 3T3 membrane protein are used per sample. Unsolubilized material is removed by centrifugation at 12,000 x g for 10 min. The solublized membrane protein or cytoplasmic protein is diluted 1:2 and precleared by incubation with protein A-Sepharose beads (Pharmacia Fine Chemical Co., Piscataway, NJ). […] The immunopellets are washed three times with 50 mM Hepes, pH 7.0, 50 mM NaCl, 10% glycerol, 0.1% Triton X-100 and resuspended in 25 mM Hepes, 50 mM NaCl, 0.1% Triton X-100, 1 mg of bovine serum albumin per ml. […] Binding specificity is tested by the simultaneous addition of a 1000-fold excess of unlabeled ligand (30 microM) and labeled ligand. Bound growth factor is crosslinked to the immunoprecipitates by addition of disuccinimidyl suberate to 0.4 mM and incubation for 15 min at 0° C. The samples are then centrifuged and the supernatant removed. The pellets are resuspended in sample buffer (33 mM Tris.HCl, pH 6.5, 2% NaDodS04, 10% glycerol, 0.1% bromophenol blue, 2% 2-mercaptoethanol) and boiled. The protein A-Sepharose beads are removed by centrifugation, and the supernatants run on 6.5% polyacrylamide/NaDodS04 gels.
To ensure linearity, several exposures are taken. Dissociation constants are determined by statistical analysis.
The dissociation constants ranged from 10^-6 M to 10^-9 M.

[2] = target: T1, dp100; assay: Affinity labelling of anti-EGF receptor immunoprecipitates (dp100) with 125I-labelled growth factors; assay type: binding; conditions: for affinity labelling (crosslinking) of dp100 by 125I-labelled ligand: disuccinimidyl suberate crosslinking, immunoprecipitates
Experimental: (§1) Affinity Labeling of Immunoprecipitates: The dp100 protein is found in the membranes and cytoplasm of the Drosophila cells. Membrane protein is solubilized in 1 to 2% Triton X-100, 10% glycerol, 50 mM Hepes, pH 7.0, for 60 min at 4° C. Typically, 500 microgram of Drosophila membrane protein or 100 microgram of Swiss 3T3 membrane protein are used per sample. Unsolubilized material is removed by centrifugation at 12,000 x g for 10 min. The solublized membrane protein or cytoplasmic protein is diluted 1:2 and precleared by incubation with protein A-Sepharose beads (Pharmacia Fine Chemical Co., Piscataway, NJ). The cleared supernatants are treated overnight with anti-EGF receptor antiserum (1:10 dilution), anti-insulin receptor antiserum (1:50), or rabbit preimmune serum (1:10), and the product precipitated with protein A-Sepharose beads. The immunopellets are washed three times with 50 mM Hepes, pH 7.0, 50 mM NaCl, 10% glycerol, 0.1% Triton X-100 and resuspended in 25 mM Hepes, 50 mM NaCl, 0.1% Triton X-100, 1 mg of bovine serum albumin per ml. 125I-EGF (35 nM) or 125I-insulin (20 nM) is added, and the samples incubated 60 min at 15° C. Binding specificity is tested by the simultaneous addition of a 1000-fold excess of unlabeled ligand (30 microM) and labeled ligand. Bound growth factor is crosslinked to the immunoprecipitates by addition of disuccinimidyl suberate to 0.4 mM and incubation for 15 min at 0° C. The samples are then centrifuged and the supernatant removed. The pellets are resuspended in sample buffer (33 mM Tris.HCl, pH 6.5, 2% NaDodS04, 10% glycerol, 0.1% bromophenol blue, 2% 2-mercaptoethanol) and boiled. The protein A-Sepharose beads are removed by centrifugation, and the supernatants run on 6.5% polyacrylamide/NaDodS04 gels.
To increase sensitivity of detection, detergent-solubilized membranes from Drosophila-cultured cell lines are immunoprecipitated with anti-EGF receptor antiserum, anti-insulin receptor antiserum, or rabbit preimmune serum prior to affinity labeling. Radiolabeled growth factors are added to the immune precipitates in the presence or absence of excess growth factor, allowed to bind at 15° C., and then crosslinked with disuccinimidyl suberate. Samples are analyzed by separation on NaDodSO4 /PAGE and subsequent autoradiography. […] However, the anti-EGF receptor antiserum does specifically immunoprecipitate dp100. Similar results are observed when membrane proteins from two different Drosophila cell lines, Schneider L2 and Kc, are analyzed.
Controls with preimmune serum fail to immunoprecipitate dp100 or any other growth factor binding protein.

[3] = target: T2, EGF receptor in human epithelial carcinoma A431 cells (Homo sapiens, UniProt P00533); assay: Competition with 125I-EGF for binding to the EGF receptor in A431 cells; conditions: 4° C., 3 hr, FIG. 2
T2 construct: endogenous in cells; host or cells: A431 cells (American Type Culture Collection)
Experimental: FIG. 2 is a graph of the competitive binding of murine EGF and synthetic human TGF-alpha to the EGF receptor in A431 cells. ^125 I-EGF (10^5 cpm) was incubated with A431 cells (2×10^4 cells/well) at 4° C. for 3 hr in the presence of different M concentrations of unlabelled EGF ( ) or TGF-alpha ( ). The percent of binding as compared to the control is the mean of duplicate determinations with the error less than 10%.
Growth factor binding to A431 cells: A431 cells are grown in monolayer and ^125 I-labelled EGF bound to the cells as described by B. Friedman et al in Proc. Natl. Acad. Sci. U.S.A. 81, 3034-3039 (1984).
To ensure that the difference in the binding affinities of EGF and TGF-alpha for dp100 reflects a property of the protein rather than the particular growth factor preparations, the ability of unlabelled EGF and TGF-alpha to compete with ^125 I-labelled EGF for binding to the EGF receptor in human epithelial carcinoma A431 cells was determined.

[4] = target: T1, dp100; assay: Affinity labelling of intact Drosophila membranes; assay type: binding
[5] = target: T3, 170 kDa EGF receptor (Mus musculus, UniProt Q01279); assay: Affinity labelling of EGF receptor immunoprecipitated from murine 3T3 fibroblast membranes; assay type: binding
T3 construct: 170 kDa EGF receptor immunoprecipitated from murine 3T3 fibroblast membranes; endogenous in cells; host or cells: Swiss 3T3 mouse fibroblasts (solubilized membranes, immunoprecipitated)
Experimental: as §1, with “Binding specificity is tested by the simultaneous addition of a 1000-fold excess of unlabeled ligand (30 microM) and labeled ligand. Bound growth factor is crosslinked to the immunoprecipitates by addition of disuccinimidyl suberate to 0.4 mM and incubation for 15 min at 0° C. The samples are then centrifuged and the supernatant removed. The pellets are resuspended in sample buffer (33 mM Tris.HCl, pH 6.5, 2% NaDodS04, 10% glycerol, 0.1% bromophenol blue, 2% 2-mercaptoethanol) and boiled. The protein A-Sepharose beads are removed by centrifugation, and the supernatants run on 6.5% polyacrylamide/NaDodS04 gels.” left out
The dp100 has a higher affinity for insulln than EGF. First, in crosslinking experiments with membranes, binding of ^125 I-insulin but not ^125 I-EGF is detected.

[6] = densitometric scanning of autoradiograms, read-out: Dissociation constants for ligand binding to dp100, KD
[7] = read-out: dissociation constant (Kd) for binding to dp100

Q: For “EGF: murine epidermal growth factor, receptor grade and HPLC purified”, which “affinity for dp100 compared with recombinant TGF-alpha” value ([1]; FIG. 3) is on record?
A: Its value is “within the same order of magnitude as the recombinant form”.

Q: And the Kd [1, 6]?
A: Its Kd is 1300 nM.

Q: And the “affinity labelling (crosslinking) of dp100 by 125I-labelled ligand” value (shortened to “affinity labelling (crosslinking)”) [2]?
A: Its value is “can be affinity labelled”.

Q: What about the “blocking of 125I-insulin and 125I-EGF binding to dp100 by excess unlabeled ligand” value [2] of the same substance?
A: Its value is “can block binding”.

Q: What about the “affinity for the mammalian EGF receptor, EGF versus TGF-alpha preparations” value [3] of the same substance?
A: Its value is “no significant difference”.

Q: And the “affinity labelling by 125I-ligand after incubation with intact Drosophila membranes” value [4]?
A: Its value is “is not detected”.

Q: What about the “blocking of 125I-EGF affinity labeling of the murine EGF receptor by excess ligand” value ([5]; excess unlabeled ligand) of the same substance?
A: Its value is “can be blocked by excess EGF”.

Q: And the “crosslinking of 125I-ligand to the 170 kDa EGF receptor” value ([5]; immunoprecipitated by anti-EGF receptor antiserum)?
A: The value was “can be crosslinked”.

Q: With “IGF-I: insulin-like growth factor-I (Amgen)” as the substance, how does the Kd [1, 6] read?
A: Its Kd is 500 nM.

Q: What about the “affinity labelling (crosslinking)” value [2] of the same substance?
A: The value was “can be affinity labelled”.

Q: For “INSULIN: porcine insulin from Biomedical Technologies Inc.”, which “inhibition of 125I-insulin and 125I-EGF binding to dp100, comparison of unlabeled ligands” value ([2]; competition with unlabeled ligand) is on record?
A: Its value is “more effective than EGF”.

Q: What about the “affinity labelling (crosslinking)” value [2] of the same substance?
A: Its value is “can be affinity labelled”.

Q: And the “blocking of 125I-insulin and 125I-EGF binding to dp100 by excess unlabeled ligand” value [2]?
A: Its value is “can block binding”.

Q: And the “affinity labelling by 125I-ligand after incubation with intact Drosophila membranes” value [4]?
A: Its value is “can be detected”.

Q: NGF: Nerve growth factor was tested. Which Kd [1, 7] did it give?
A: The Kd was over 1000 nM.

Q: How did the “affinity labelling (crosslinking)” value [2] turn out when PDGF was run?
A: Its value is “neither ^125 I-TGF-beta nor ^125 I-PDGF, two structurally unrelated growth factors, can be crosslinked”.

Q: For “TGF-alpha: Synthetic human transforming growth factor-alpha, synthesized chemically (J. Tam, Rockefeller University)”, which “affinity for dp100 relative to that for EGF” value [1] is on record?
A: Its value is “three orders of magnitude higher”.

Q: And the “affinity for dp100 relative to human recombinant TGF-alpha” value ([1]; FIG. 3)?
A: The value was 100-1000 times.

Q: And the Kd [1, 6]?
A: The Kd was 5 nM.

Q: And the Kd [1, 7]?
A: The Kd was 5 nM.

Q: What about the “affinity labelling (crosslinking)” value [2] of the same substance?
A: Its value is “can be affinity labelled”.

Q: What about the “affinity for the mammalian EGF receptor, EGF versus TGF-alpha preparations” value [3] of the same substance?
A: Its value is “no significant difference”.

Q: Which “affinity labelling (crosslinking)” value [2] does the source give for “TGF-beta: 125I-TGF-beta, structurally unrelated growth factor” here?
A: Its value is “neither ^125 I-TGF-beta nor ^125 I-PDGF, two structurally unrelated growth factors, can be crosslinked”.

Q: With glucagon: glucagon (Sigma Chemical Co.) as the substance, how does the Kd [1, 7] read?
A: Its Kd is over 1000 nM.

Q: With “native TGF-alpha: native transforming growth factor-alpha” as the substance, how does the “affinity for dp100 compared with recombinant TGF-alpha” value ([1]; FIG. 3) read?
A: Its value is “within the same order of magnitude as the recombinant form”.

Reference: patent publication US4774321A, “DP100 EGF and insulin-binding protein from Drosophila cells” (Massachusetts Institute of Technology, priority 1986, dated 1988)
